Results from article PMC12323374.

Tests used:
Experiment in all cases: SEC
[1] = biological target: Nsp3 Ubl1 variant D80R E81R (SARS-CoV-2)
[2] = biological target: Nsp3 Ubl1 variant E26R E29R (SARS-CoV-2)
[3] = biological target: Nsp3 Ubl1 variant E49R E52R (SARS-CoV-2)
[4] = biological target: Nsp3 Ubl1 variant K33E K38E (SARS-CoV-2)
[5] = biological target: SARS-CoV-2 Nsp3 NAB domain, longer fragment, residues 1,050-1,216 (SARS-CoV-2)
[6] = biological target: SARS-CoV-2 Nsp3 ubiquitin-like 1 (Ubl1) domain, residues 1-111 (SARS-CoV-2)

Q: With “Nsp3 Ubl1 variant D80R E81R (domain or fragment)” as the substance, how does the stoichiometry N [1] read?
A: 2

Q: Which stoichiometry N [2] does the source give for “Nsp3 Ubl1 variant E26R E29R (domain or fragment)” here?
A: 2

Q: For “Nsp3 Ubl1 variant E49R E52R (domain or fragment)”, which stoichiometry N [3] is on record?
A: 2

Q: With “Nsp3 Ubl1 variant K33E K38E (domain or fragment)” as the substance, how does the stoichiometry N [4] read?
A: 2

Q: For “SARS-CoV-2 Nsp3 NAB domain, longer fragment, residues 1,050-1,216 (domain or fragment)”, which stoichiometry N [5] is on record?
A: 2

Q: “SARS-CoV-2 Nsp3 ubiquitin-like 1 (Ubl1) domain, residues 1-111 (domain or fragment)” was tested. Which stoichiometry N [6] did it give?
A: 2
